The record followed here is PMC6442418, “Pycnoporus cinnabarinus glyoxal oxidases display differential catalytic efficiencies on 5-hydroxymethylfurfural and its oxidized derivatives” (Fungal Biology and Biotechnology, 2019).

What all share (experiment): purified protein
Common to all, as to format: biochemical, Trametes cinnabarina
Conditions in all cases: 50 mM sodium tartrate pH 6, 30 °C, HRP 8 U, 0.1 mM ABTS, 5 µM H2O2

Substrate in data set [1]: O=Cc1ccc(C=O)o1
Substrate in data set [2]: O=Cc1ccc(CO)o1
Substrate in data set [3]: CC(=O)C=O
Substrate in data set [4]: O=CC(=O)O
Substrate in data set [5]: O=CC=O
Substrate in data set [6]: OCC(O)CO

B1: PciGLOX1 (Trametes cinnabarina) (protein)
chain: APSAPGWRFDLKAERSGIVALESIVVSPTLVLWFDRASDDPLQINNHSAWGALWNLETSTVRPLNVLTNSFCASGALLSNGSMASVGGDPRGFPGNPAINPGNQAIRIFEPCASPTGDGCTVFEDPQTLHLLEDRWYPSSIRIFDGSLLIVGGTHVNENFYNLHPANSFEFFPPKESTPRPSAFLERSLPANLFPRIFALPDGKVFMVANNQSIIYDIEANTERILPDIPNNVRVTNPIDGSAILLPLTPPDYIPEVLVCGGTSTDPLDPSLLSSQTPATTQCSRIRLDEEGIAKGWQVEHMLEPRTMPELVHIPNGQILIANGARTGFAAIKQVQDPIGNSNSDHAVLVPSIYTPDAPLGQRISNAGMPSSGIARVYHSSITLTPQGNFLIAGSNPNGNTTVGPGVKFPSEFRVQTLDPPFMFVERPKILNTPEKLAFNKTFTVPISVPSTLASPGAKVQVSLMDLGFSSHAFHSSARLVFMDATISRDRRSLTFTTPPNGRVFPPGPATVFLTIDGVTSEGAWVMMGSGNSPPTLE
notes: secreted copper radical oxidase (AA5), heterologously produced in Aspergillus niger, purified
As usually defined, the Km is the concentration of substrate that gives half-maximal velocity. By kcat is commonly meant the number of substrate molecules converted per active site and unit of time at saturation. Usually kcat/Km stands for the second-order rate constant that governs catalysis at low substrate concentration. For B1, in the data set “purified protein [1]”, the Km was 4380 ± 100 µM, the kcat worked out at 0.54 ± 0.24 s⁻¹ and the kcat/Km was found to be 124.39 ± 0.01 M⁻¹ s⁻¹. Besides, in the data set “purified protein [2]”, the Km was 15660 ± 2350 µM, the kcat was 1.59 ± 0.12 s⁻¹ and the kcat/Km was found to be 101.66 ± 0.01 M⁻¹ s⁻¹.

B2: PciGLOX2 (Trametes cinnabarina) (protein)
chain: APSTPTGWQFNLKAERSGIVALESIVVSPTLVVFFDRATNDPLQINNHSAWGALWNLETSTVRALDVLTNSFCASGALLSNGTMASIGGDPNGFPGNPAIHPGTQAIRLFEPCDSPTGEGCTLFEDPVTLHLLEKRWYPSSVRIFDGSLLIVGGMHEETPFYNTDPALSFEFFPPKESTPRPSEFLNRSLPANLFPRVFALPDGKVFMVANNQSIIYDIEANTERILPDIPNNVRVTNPIDGSAILLPLSPPDFVPEVLVCGGTQTDTIDPSLLTSQTPASSQCSRIRLDEEGIARGWEVEHMLEGRMMPELVHLPNGQVLIANGARTGFAAIASVSDPVGGSNADHAVLVPSLYTPDAPLGTRISNVGLPSSGIARVYHSSITLTPQGNFLIAGSNPNNNSSVTAGVKFPSEFRVQTLDPPFMFVERPKILSMPKKLAFGKSFTVPIAVPSTLAHPGAKVQVSLMDLGFSSHAFHSSARLVFMNAKISQDGKSLTFTTPPNGRVYPPGPATIFLTIDDVTSEGAWVMMGSGNPPPTLE
notes: as for B1
Turning to B2, in “purified protein [1]”, the Km was 210 ± 40 µM, the turnover number (kcat) worked out at 4.8 ± 0.24 s⁻¹ and the kcat/Km came to 23404 ± 0.01 M⁻¹ s⁻¹. In “purified protein [2]”, the Km is 5870 ± 2040 µM, the kcat was determined as 0.56 ± 0.09 s⁻¹ and the kcat/Km stood at 96.04 ± 0.01 M⁻¹ s⁻¹.

B3: PciGLOX3 (Trametes cinnabarina) (protein)
chain: APSAPGWSFDLKKETSGIVALEAIVVSPTLVVFFDRASDDPLQINNHSAWGALWNLESSTVRPLDVLTNSFCASGALLSNGTMASVGGDPDGFVGNPAIRPGNQAIRLFEPCDSPTGDGCTLFEDPATLHLLEKRWYPSSARIFDGSLIIVGGMHEATPFYNTDPALSFEFFPRKEDTPRPSEFLNRSLPANLFPRVFALPDGKVFMVANNQSIIYDIEAKTERILPDVPNNVRVTNPMDGSAILLPLSPPDFVPEVLVCGGSQTDTIDPSLLTSQTPASSQCSRIRLDEEGIAKGWEVEHMLEGRIMPELVHLPNGQVLIANGGRTGFAAIASVSEPVGNSNADHPVLVPSLYTPDAPLGRRISNVGLPSSGIPRLYHSSVTLTPQGNFLIAGSNPNNRTTVGPGIKFPSEFRVQTLDPPFMSVERPKILNMPKKLGFNKSFTVPISVPSSLARPGAKVQISLMDLGFSSHAFHSSARLVFMNGKISQDSKSLTFTTPPNGRVYPPGPATVFLTIDDVTSEGAWVMMGSGNSPPTLE
notes: as for B1
Take B3: the Km in “purified protein [3]” amounted to 100 µM; in “purified protein [4]” it was 500 µM; in the data set “purified protein [5]”, 700 µM; in “purified protein [1]”, 180 ± 50 µM; in the data set “purified protein [2]”, 6350 ± 1320 µM; in the data set “purified protein [6]”, 5500 µM. Also, the values for the catalytic constant (kcat) in “purified protein [1]” and in “purified protein [2]” were 1.28 ± 0.09 s⁻¹ and 0.75 ± 0.07 s⁻¹, respectively. The figures for the kcat/Km in “purified protein [1]” and in “purified protein [2]” were 7267.7 ± 0.01 M⁻¹ s⁻¹ and 118.35 ± 0.01 M⁻¹ s⁻¹, respectively.
